The text below walks through data of patent US6713443B1, “Compounds which modify serotoninergic transmission, diagnostic and therapeutic applications” (Institut Pasteur, priority 1993, dated 2004).

Experiment [1] has as its system 5-HT1B/D receptors. Nature of the experiment: Relative activity at 1 nM, [3H]5-HT binding. The following applies: 1 nM peptide or amino acid, 30 nM [3H]5-HT. The method, then:
(§1) The binding experiments were performed as described above. […] Each value corresponds to the mean ± the standard deviation of three independent tests performed in quintuplicate.

For experiment [2], the system named is 5-HT1B/D receptors. Nature of the experiment: Relative activity at 1 nM, [125I]cyanopindolol binding. The following applies: 1 nM peptide or amino acid, 0.3 nM [125I]cyanopindolol. The method, then: as §1
Experiment [3] deals with mouse. Nature of the experiment: Forced swimming test (Porsolt). The settings on record: reference antidepressants. It is filed as in vivo. An excerpt:
The forced swimming test (Porsolt) is a simple test which cannot, under any circumstances, be assimilated with a model of “depression”.

Experiment [4] deals with 5-HT1B/1D receptors. Nature of the experiment: inhibition of 30 nM [3H]5-HT binding, 1 nM peptide.
The target in experiment [5] is T1, 5-HT1B receptor of rat brain (rat, UniProt P28564 1-386).
T1 construct: whole, on cells
T1 sequence (P28564 whole entry): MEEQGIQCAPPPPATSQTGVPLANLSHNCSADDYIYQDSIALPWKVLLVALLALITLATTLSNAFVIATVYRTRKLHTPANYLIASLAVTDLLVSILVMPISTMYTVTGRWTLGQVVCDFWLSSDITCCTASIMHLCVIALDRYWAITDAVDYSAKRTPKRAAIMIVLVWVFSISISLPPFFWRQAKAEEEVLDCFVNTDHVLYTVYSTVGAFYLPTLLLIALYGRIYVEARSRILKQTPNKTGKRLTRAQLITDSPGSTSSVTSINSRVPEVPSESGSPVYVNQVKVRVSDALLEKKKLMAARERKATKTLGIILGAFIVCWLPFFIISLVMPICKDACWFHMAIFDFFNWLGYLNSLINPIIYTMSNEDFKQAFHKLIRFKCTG
As to the kind of experiment: inhibition of 0.3 nM [125I]cyanopindolol binding, 1 nM peptide.

Experiment [6] concerns the target 5-HT1B/1D receptors. Nature of the experiment: inhibition of [3H]5-HT or [125I]cyanopindolol binding to 5-HT1B/1D type receptors.
The subject of experiment [7] is 5-HT1B/1D type receptors. As to the kind of experiment: Binding of [3H]5-HT or [125I]cyanopindolol to 5-HT1B/1D type receptors (short peptides).
The subject of experiment [8] is 5-HT receptor. Nature of the experiment: Ligand activity of modified LSAL peptides on the 5-HT receptor. It counts as binding.
Experiment [9] addresses 5-HT1B/1D receptors. Nature of the experiment: cell-based or functional assay.
The target of experiment [10] is 5-HT1 receptors. Nature of the experiment: inhibition of [3H]5-HT binding to 5-HT1 receptors.
Experiment [11] addresses 5-HT1B/1D receptors. As to the kind of experiment: inhibition of [3H]5-HT binding to 5-HT1nonA sites.
The target in experiment [12] is T2, 5-HT1D receptors in guinea pigs (guinea pig, UniProt Q60484 1-376).
T2 construct: Native tissue; preparation not described
T2 sequence (Q60484 whole entry): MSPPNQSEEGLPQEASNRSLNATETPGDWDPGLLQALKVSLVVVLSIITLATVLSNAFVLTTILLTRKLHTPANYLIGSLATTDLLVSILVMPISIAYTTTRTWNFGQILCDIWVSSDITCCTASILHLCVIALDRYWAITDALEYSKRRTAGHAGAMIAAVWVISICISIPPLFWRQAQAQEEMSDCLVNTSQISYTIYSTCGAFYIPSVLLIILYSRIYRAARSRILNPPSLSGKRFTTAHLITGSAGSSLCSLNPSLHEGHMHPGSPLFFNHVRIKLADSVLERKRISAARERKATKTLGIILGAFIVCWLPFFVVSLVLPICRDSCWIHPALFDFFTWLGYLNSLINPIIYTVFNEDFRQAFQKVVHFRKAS
As to the kind of experiment: inhibition of [3H]5-HT binding to 5-HT1D receptors, guinea pig.

Experiment [13] addresses T3, 5-HT1D receptors of human brain (human, UniProt P28221 1-377).
T3 construct: whole, on cells; Native tissue; preparation not described
As to the kind of experiment: inhibition of [3H]5-HT binding to 5-HT1D receptors, human brain.

For experiment [14], the target named is 5-HT1 receptors. Nature of the experiment: inhibition of [3H]5-HT binding to 5-HT1 receptors, 10^-9 M peptide.
The target of experiment [15] is 5-HT2A receptor of rat brain (rat) (UniProt P14842). Nature of the experiment: radioligand binding, rat brain membranes, [3H]DOB (5 nM), 1 nM peptide.
Sequence of 5-HT2A receptor of rat brain (rat) (P14842 whole entry): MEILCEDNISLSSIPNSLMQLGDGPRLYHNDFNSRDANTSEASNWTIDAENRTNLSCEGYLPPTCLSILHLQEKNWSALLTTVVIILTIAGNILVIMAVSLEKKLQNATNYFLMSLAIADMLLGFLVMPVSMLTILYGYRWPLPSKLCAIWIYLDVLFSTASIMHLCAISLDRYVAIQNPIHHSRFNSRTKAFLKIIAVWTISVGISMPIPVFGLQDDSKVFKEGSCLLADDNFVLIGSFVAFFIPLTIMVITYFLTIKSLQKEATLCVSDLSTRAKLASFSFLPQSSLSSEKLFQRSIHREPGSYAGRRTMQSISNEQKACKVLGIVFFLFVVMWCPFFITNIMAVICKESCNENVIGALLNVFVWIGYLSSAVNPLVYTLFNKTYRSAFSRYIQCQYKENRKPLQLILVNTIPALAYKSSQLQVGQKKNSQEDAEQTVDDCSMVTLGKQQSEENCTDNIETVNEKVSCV
The target in experiment [16] is opiate receptors of rat brain. Nature of the experiment: radioligand binding, rat brain membranes, [3H]naloxone (2 nM), 1 nM peptide.
For experiment [17], the target named is α1 adrenergic receptors of rat brain. Nature of the experiment: radioligand binding, rat brain membranes, [3H]prazosin (2 nM), 1 nM peptide.
The target of experiment [18] is 5-HT1A receptors of rat brain (rat) (UniProt P19327). Nature of the experiment: radioligand binding, rat brain membranes, [3H]8-OH-DPAT (3 nM), 1 nM peptide.
Sequence of 5-HT1A receptors of rat brain (rat) (P19327 whole entry): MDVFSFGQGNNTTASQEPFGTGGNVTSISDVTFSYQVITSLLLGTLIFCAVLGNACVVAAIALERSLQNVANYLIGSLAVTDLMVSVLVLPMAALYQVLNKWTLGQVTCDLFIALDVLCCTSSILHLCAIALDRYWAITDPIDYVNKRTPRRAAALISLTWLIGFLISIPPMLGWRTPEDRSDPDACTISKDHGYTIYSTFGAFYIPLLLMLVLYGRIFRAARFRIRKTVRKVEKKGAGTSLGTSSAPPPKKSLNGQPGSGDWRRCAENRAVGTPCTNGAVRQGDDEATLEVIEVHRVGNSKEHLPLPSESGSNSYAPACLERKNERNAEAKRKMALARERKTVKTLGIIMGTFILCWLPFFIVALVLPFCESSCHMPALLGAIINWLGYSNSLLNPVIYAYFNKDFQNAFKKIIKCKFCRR
The target in experiment [19] is 5-HT3 receptor of rat brain (rat) (UniProt P35563). Nature of the experiment: radioligand binding, rat brain membranes, [3H]BRL 43694 (3 nM), 1 nM peptide.
Sequence of 5-HT3 receptor of rat brain (rat) (P35563 24-483): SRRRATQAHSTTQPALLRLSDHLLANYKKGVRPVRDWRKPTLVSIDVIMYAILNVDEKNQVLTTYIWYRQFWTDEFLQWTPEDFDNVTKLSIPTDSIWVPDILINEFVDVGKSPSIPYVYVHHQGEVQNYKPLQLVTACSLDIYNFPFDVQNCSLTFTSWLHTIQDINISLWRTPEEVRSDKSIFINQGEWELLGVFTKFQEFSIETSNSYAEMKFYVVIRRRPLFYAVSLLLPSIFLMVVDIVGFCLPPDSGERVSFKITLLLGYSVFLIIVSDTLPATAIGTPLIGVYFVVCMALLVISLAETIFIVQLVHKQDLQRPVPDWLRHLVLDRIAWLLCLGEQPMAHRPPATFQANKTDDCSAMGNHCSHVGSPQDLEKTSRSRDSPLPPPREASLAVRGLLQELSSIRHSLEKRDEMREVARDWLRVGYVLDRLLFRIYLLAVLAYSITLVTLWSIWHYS
Experiment [20] has as its target T1, 5-HT1B receptor of rat brain. Nature of the experiment: inhibition of [125I]cyanopindolol binding, rat cerebral tissue homogenates.
The target in experiment [21] is 5-HT2A receptor of rat brain (rat) (UniProt P14842). As to the kind of experiment: radioligand binding, rat brain membranes, [3H]ketanserin (5 nM), 1 nM peptide.
The target in experiment [22] is H1 histaminergic receptor of rat brain (rat) (UniProt P31390). Nature of the experiment: radioligand binding, rat brain membranes, [3H]mepyramine (5 nM), 1 nM peptide.
Sequence of H1 histaminergic receptor of rat brain (rat) (P31390 whole entry): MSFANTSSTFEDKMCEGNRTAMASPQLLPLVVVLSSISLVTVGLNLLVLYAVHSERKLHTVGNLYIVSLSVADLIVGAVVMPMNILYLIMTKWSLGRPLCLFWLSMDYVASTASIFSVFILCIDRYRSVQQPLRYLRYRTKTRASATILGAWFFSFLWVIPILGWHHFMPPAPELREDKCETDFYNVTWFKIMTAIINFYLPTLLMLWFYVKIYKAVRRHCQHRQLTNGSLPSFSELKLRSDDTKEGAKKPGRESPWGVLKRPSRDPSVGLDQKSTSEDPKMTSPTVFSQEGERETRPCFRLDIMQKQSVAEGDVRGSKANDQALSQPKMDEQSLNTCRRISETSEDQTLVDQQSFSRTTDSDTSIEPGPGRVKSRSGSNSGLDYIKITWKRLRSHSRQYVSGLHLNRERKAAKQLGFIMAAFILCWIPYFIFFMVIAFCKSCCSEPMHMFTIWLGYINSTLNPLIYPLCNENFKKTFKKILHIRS
Experiment [23] deals with benzodiazepine receptors of rat brain. Nature of the experiment: radioligand binding, rat brain membranes, [3H]flunitrazepam (3 nM), 1 nM peptide.
Experiment [24] deals with 5-HT1EFC. As to the kind of experiment: radioligand binding, rat brain membranes, [3H]5-HT (30 nM) + 20 nM 5-CT, 1 nM peptide.
Experiment [25] has as its target D2 dopaminergic receptor of rat brain (rat) (UniProt P61169). Nature of the experiment: radioligand binding, rat brain membranes, [3H]epiperone (2 nM) + 10 µM 5-HT, 1 nM peptide.
The target of experiment [26] is muscarinic receptors of rat brain. Nature of the experiment: radioligand binding, rat brain membranes, [3H]quinuclidinyl benzilate (3 nM), 1 nM peptide.
For experiment [27], the target named is 5-HT1B/1D receptors. Nature of the experiment: radioligand binding, rat brain membranes, [3H]5-HT (30 nM) + 0.1 µM 8-OH-DPAT, 1 nM peptide.
Experiment [28] concerns the target β adrenergic receptors of rat brain. Nature of the experiment: radioligand binding, rat brain membranes, [3H]dihydroalprenolol (3 nM) + 5-HT, 1 nM peptide.

No end group written: not given here.

T3 sequence (P28221 whole entry): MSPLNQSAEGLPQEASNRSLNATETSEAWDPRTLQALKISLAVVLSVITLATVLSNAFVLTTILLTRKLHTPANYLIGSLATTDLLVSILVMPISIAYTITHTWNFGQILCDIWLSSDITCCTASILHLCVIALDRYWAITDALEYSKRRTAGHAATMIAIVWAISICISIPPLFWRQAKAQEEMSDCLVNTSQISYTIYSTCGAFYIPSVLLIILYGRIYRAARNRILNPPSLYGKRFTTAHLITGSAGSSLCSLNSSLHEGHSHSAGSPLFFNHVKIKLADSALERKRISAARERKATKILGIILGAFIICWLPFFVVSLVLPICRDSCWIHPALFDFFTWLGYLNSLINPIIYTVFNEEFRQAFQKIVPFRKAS
Sequence of D2 dopaminergic receptor of rat brain (rat) (P61169 whole entry): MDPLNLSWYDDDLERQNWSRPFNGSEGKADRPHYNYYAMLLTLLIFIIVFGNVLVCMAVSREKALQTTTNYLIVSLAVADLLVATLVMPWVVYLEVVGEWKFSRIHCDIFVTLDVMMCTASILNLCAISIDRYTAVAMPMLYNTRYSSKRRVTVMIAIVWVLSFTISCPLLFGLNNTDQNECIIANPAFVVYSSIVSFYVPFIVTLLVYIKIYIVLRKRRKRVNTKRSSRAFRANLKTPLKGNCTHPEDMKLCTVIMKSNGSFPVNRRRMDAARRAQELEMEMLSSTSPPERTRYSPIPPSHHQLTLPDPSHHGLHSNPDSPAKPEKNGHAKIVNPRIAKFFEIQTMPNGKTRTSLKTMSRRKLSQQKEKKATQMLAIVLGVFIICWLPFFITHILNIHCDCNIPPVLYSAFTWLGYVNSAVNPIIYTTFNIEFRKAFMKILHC

For the molecule `C[C@H](N)C(=O)O` [ALA], in [1], the “RELATIVE POTENCY, Receptors 5-HT1B/D ([3H]5-HT)” value (“RELATIVE POTENCY … ([3H]5-HT)” for short) is 0 ± 4 percentage of the LSAL effect. In addition, the “RELATIVE POTENCY, Receptors 5-HT1B/D ([125I]-cyanopindolol)” value (“RELATIVE POTENCY … ([125I]-cyanopindolol)” for short) in [2] was 1.7 ± 1.68 percentage of the LSAL effect.
In the same order, the values of `CC(C)C[C@H](N)C(=O)O` [LEU] are 2 ± 9 percentage of the LSAL effect and 0 ± 2 percentage of the LSAL effect.
In the same order, the values of `N[C@@H](CO)C(=O)O` [SER] are 0 ± 5 percentage of the LSAL effect and 0 ± 1.7 percentage of the LSAL effect.
On to `CN1Cc2c(N)cccc2C(c2ccccc2)C1` (stereo not shown) [nomifensine], for which the “activity in the forced swimming test compared with the peptide” value in experiment [3] is listed as “much more effective than the peptide”.
Consider AC-LEU-SER-ALA-LEU, for which the “RELATIVE POTENCY … ([3H]5-HT)” value in experiment [1] is recorded as 26.7 ± 10 percentage of the LSAL effect.
The molecule AC-LEU-SER-ALA-LEU (peptide) gave a relative potency (% of the LSAL effect) (% of the LSAL effect) in [4] of 26.7.
In general, IC50 refers to the concentration that gives 50% inhibition. Lower therefore signals inhibition by little substance. With Ala-Leu (peptide), the values for the relative potency (% of the LSAL effect) (% of the LSAL effect) in experiment [4] and in experiment [5] were 50 and 61.5, respectively. Moreover, in experiment [6], the IC50 stood at 1000 nM.
On to “Ala-Leu-Leu-Ser (ALLS; printed: ALA-LEU-LEU-SER) [comparison peptide]”, for which the “activity on binding to the 5-HT1B/1D type receptors” value in [7] was “inactive”. In experiment [1], the “RELATIVE POTENCY … ([3H]5-HT)” value is 10 ± 15 percentage of the LSAL effect. Further, in [2], the “RELATIVE POTENCY … ([125I]-cyanopindolol)” value is 23.6 ± 10.6 percentage of the LSAL effect.
As for Ala-Leu-Leu-Ser (peptide), the relative potency (% of the LSAL effect) (% of the LSAL effect) in [4] is 10; in [5] it was 23.6.
In experiment [7], Ala-Leu-Ser (ALS) had an IC50 of 1000 nM. Also, the “RELATIVE POTENCY … ([3H]5-HT)” value in experiment [1] is reported as 28 ± 10 percentage of the LSAL effect. The “RELATIVE POTENCY … ([125I]-cyanopindolol)” value in [2] is recorded as 33.8 ± 10 percentage of the LSAL effect.
On to Ala-Leu-Ser (peptide), for which the relative potency (% of the LSAL effect) (% of the LSAL effect) amounted to 28 in experiment [4] and 33.8 in experiment [5]. In experiment [6], this molecule came in with an IC50 of 1000 nM.
As for D-ALA-LEU (peptide), in experiment [4], the relative potency (% of the LSAL effect) (% of the LSAL effect) worked out at 0.
For the molecule LEU-ALA (peptide), the relative potency (% of the LSAL effect) (% of the LSAL effect) in experiment [4] came out at 1; in experiment [5], 1.7.
Consider LEU-SER-ALA-LEU-NH2 (peptide), for which, in experiment [4], the relative potency (% of the LSAL effect) (% of the LSAL effect) stood at 83.3.
With LSALGGGY, in experiment [1], the “RELATIVE POTENCY … ([3H]5-HT)” value was 80.9 ± 9.5 percentage of the LSAL effect. Further, the “ligand activity on the 5-HT receptor” value in [8] is listed as “still having a substantial activity”.
As to Leu-Ser (peptide), the relative potency (% of the LSAL effect) (% of the LSAL effect) turned out to be 45.7 in experiment [4] and 53.8 in experiment [5]. Besides, the IC50 in experiment [6] amounted to 10000 nM.
For Leu-Ser-Ala-Leu-NH2, the “RELATIVE POTENCY … ([3H]5-HT)” value in experiment [1] was 83.3 ± 16 percentage of the LSAL effect.
As to SER-LEU (peptide), the relative potency (% of the LSAL effect) (% of the LSAL effect) in experiment [4] was 4.
Still for that read-out and setting: the value for β-ALA-DL-LEU (peptide) was 2; that for β-ALA-LEU (peptide) was 0.
As for LSAL (also called LSAL; the peptide) [Leu-Ser-Ala-Leu], in experiment [9], the K+-induced liberation of [3H]5-HT from rat brain hippocampus synaptosomes, apparent IC50 was found to be 10 pM. Also, in experiment [4], the relative potency (% of the LSAL effect) (% of the LSAL effect) came out at 100. Also, the IC50 in [10], in experiment [11], in experiment [12], in experiment [13] and in experiment [20] was 0.01 nM throughout. Besides, in [14], the maximum inhibitory effect is 30 to 50%. In addition, the inhibitory effect as % of the control (% of the control) in experiment [15] is 2; in experiment [16], 10; in [17], 5; in [18], 0; in experiment [19], 0; in [21], 10. The inhibitory effect as % of the control (% of the control) is 10 in experiment [22]; 2 in experiment [23]; 0 in [24]; 2 in experiment [25]; 0 in experiment [26]; 75 in experiment [27]. Moreover, the inhibitory effect as % of the control (% of the control) in experiment [28] was determined as 10.
In experiment [4], LSALGGGY [Leu-Ser-Ala-Leu-Gly-Gly-Gly-Tyr] gave a relative potency (% of the LSAL effect) (% of the LSAL effect) of 80.9.
